The numbers were not newly measured in PMC5852440, which cites them from elsewhere.

In the series the target is EphB4 (Homo sapiens) (UniProt P54760).
Sequence of UniProt P54760 (P54760 16-539): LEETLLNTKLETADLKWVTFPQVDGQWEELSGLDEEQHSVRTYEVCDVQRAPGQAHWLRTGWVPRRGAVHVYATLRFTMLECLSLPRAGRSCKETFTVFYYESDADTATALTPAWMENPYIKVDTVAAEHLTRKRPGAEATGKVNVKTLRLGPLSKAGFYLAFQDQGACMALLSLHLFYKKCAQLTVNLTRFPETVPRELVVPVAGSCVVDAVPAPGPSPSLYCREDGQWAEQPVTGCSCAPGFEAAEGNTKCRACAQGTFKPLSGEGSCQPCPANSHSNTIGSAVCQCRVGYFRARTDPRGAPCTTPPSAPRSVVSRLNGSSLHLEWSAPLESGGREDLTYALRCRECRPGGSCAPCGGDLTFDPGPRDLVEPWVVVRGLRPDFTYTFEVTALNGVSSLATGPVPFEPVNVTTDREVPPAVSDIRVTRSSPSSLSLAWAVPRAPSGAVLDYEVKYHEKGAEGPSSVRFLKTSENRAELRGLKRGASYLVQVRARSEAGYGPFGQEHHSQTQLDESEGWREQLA

In the case of Epo (from UniProt P01588), the Kd (commonly the free concentration of one partner at which half of the binding sites on the other are occupied at equilibrium, for simple one-to-one binding) is 880 nM.
